According to PMC1636413 (Nucleic Acids Research, 2006):
Where a chain is given by its changes, count along the chain named.

How the values were obtained:
Assay in all cases: EMSA
MutSCF/D835R = target: T1, MutSCF/D835R (Escherichia coli K12, UniProt P23909 1-853, C93A;C235S;C239A;C297S;C569S;C711V;D835R)
T1 sequence: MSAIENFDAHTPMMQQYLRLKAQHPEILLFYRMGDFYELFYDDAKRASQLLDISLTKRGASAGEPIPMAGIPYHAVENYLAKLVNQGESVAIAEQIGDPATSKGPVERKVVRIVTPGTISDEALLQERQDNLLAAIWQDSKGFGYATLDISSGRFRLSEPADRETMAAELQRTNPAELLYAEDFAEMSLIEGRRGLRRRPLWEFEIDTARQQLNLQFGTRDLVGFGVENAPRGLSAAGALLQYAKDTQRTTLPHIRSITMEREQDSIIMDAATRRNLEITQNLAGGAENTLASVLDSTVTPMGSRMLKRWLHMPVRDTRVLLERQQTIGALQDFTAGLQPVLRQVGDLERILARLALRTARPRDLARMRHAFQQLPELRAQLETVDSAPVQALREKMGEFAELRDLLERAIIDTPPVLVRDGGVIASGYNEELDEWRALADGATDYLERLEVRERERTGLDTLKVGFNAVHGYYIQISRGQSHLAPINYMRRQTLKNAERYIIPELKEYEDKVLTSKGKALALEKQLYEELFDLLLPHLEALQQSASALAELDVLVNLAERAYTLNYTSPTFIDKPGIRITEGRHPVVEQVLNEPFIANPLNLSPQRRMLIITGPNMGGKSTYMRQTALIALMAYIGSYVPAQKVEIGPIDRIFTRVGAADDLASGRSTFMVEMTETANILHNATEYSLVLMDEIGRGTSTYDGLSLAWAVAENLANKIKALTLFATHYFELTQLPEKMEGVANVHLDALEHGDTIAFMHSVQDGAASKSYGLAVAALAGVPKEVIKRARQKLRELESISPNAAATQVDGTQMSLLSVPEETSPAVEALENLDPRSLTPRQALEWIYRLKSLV

[1] = target: T2, MutSCF (cysteine-free MutS) (Escherichia coli K12, UniProt P23909 1-853, C93A;C235S;C239A;C297S;C569S;C711V)
T2 sequence: T1 sequence with R835D

MutSwt = target: T3, MutSwt (Escherichia coli K12, UniProt P23909 1-853)
T3 sequence: T1 sequence with A93C, S235C, A239C, S297C, S569C, V711C, R835D

B1: 42 bp G/T heteroduplex (dsDNA)
DNA 1: TATTAATTTCGCGGGCTCGAGAGCTTCATCCTCTACGCCGGA
DNA 2: TCCGGCGTAGAGGATGAAGCTTTCGAGCCCGCGAAATTAATA
Question: With B1 as the binder, how does the “apparent K (half saturation)” value (MutSCF/D835R) read?
Answer: 45 ± 3 nM

Question: What about the “apparent K (half saturation)” value [1] of the same binder?
Answer: 42 ± 2 nM

Question: Does B1 bind (MutSwt)?
Answer: binds
